Results from patent publication US20230167169A1 (ATRECA, published 2023).

Molecular target: T1, (NANP)6 (Plasmodium falciparum, biotinylated for the BLI assay (site not stated))
T1 construct: Used in both the BLI and SPR assays
T1 peptide: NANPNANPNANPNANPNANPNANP
Test: BLI; biotinylated target on streptavidin sensor; antibody at 5 µg/mL

B1: AB-000224 (antibody, V domains shown)
VH: EVQLVESGGGLVQPGRSLRLPCTASGFSFGDHAMSWVRQAPGKGLEWVGFIRKTTYGATTHYAAAVRGRFTISRDDSKSIVYLQMNSLKTEDTAVYFCTRVQLDYGPGYQYYGMDVWGQGTTVTVSS
VL: ESVLTQPPSVSGAPGQRVTISCTGMNSNIGAGYDVYWYQQLPGRAPKLLIYGNSNRPSGVPDRFSGSRSGTSASLAITGLQAEDEADYYCQSYDTSLNGWAFGGGTKLTVLG
kon: 275000 M⁻¹ s⁻¹
